We go through 14 sequences from a protein production outcome set (Wang et al. 2014).

The nature of the data set: label from the status in PepcDB records.

“MEDQCIISHLAGIFSGVLATDFLRYAVGAGGVYLTVNLALAARLRARKIRAYEPPKGQIGREILASLRTVLIFALNGTLIVVGAEAGLVPIYREIATHGWAYLFFSTTVLIVAHDTWFYWSHRLLHYPPIFRRFHRLHHKSHNPTPFTSYSFDLGEAVVNAIYLPLILLVLPAHPVAILVFVTHMMLRNAIGHSGYEIFPANRRGKPLFDWITTVTHHDLHHAHAGYNLGLYFTWWDRLMGTEHPDYHEAFQKVAKPASWPSVRAVILAFAIFTGIAVSDARAERLSGAYASPGFGVIVRFEPCNANPGLTCGRMIWAWDAAEVPHAQSGDVIVIDLHGDGNVWSGRLKNPENGRMYRGSVVQRSPDTIVLRGCAGPFCTSQIWHSVRALRRALESAE”: the protein production entry is reported as “failed”.
On to “MEDSSLLSPISLLTIVIFLFILNLMMIIQDFSSSFPFRFHLFFSNAYILFTSIRNNKQNTELPIIKKVVVPNRADIKTSVEEVKAIIDDSEALYECLIEEGEEYLLEKNEMMGKEIVKEAFRLFDENQDGFIDENELKHVLSLLGYDECTKMECRKMVKVYDENRDGKIDFYEFVKLIEKSFS”, for which the protein production result is “failed”.
As for “MEDTMSKKAKKIIKIVVISIVTLAITICFGGYMMFHNEIKTLHSIEKLDDYPFYMMEYYGDYGLDEFLEQGGASSDSELVSFVVKRLMKGLPIEINIPSLGCSTFTAVTPENEYLFGRNFDLSYSPAMMVRTKPEKGYESVSMVNLGFIGYGKDKLPDNFFNSITTLAGPYAPLDGMNEKGLSVGVLLIPTEETNQTTNKVDITTTTAIRMILDTCATVEEAVDLLSQYDMHSSANSCYHFQIADANGTSVVVEYINNEMKLVEPKQAYQAATNFLLTPGDYDFGHGQDRYNTLMTTLDKKQGVLSEKEAMNLLKAVSQQPHKTKDGSISATQWSVVYNNTKRTATVSMGMDYQHTYEIKLFE”, the protein production result was “failed”.
Regarding “MEEENNLNSKDTQNTFLKGSAWMTFGSIASRILGALYIIPWYAWMGQYGNIANALTARSYNIYTIFILISTAGIPGAIAKQVAKYNALNEYGIGRRLFHKGLILMAILGVVSAAIMYFASPLLASNGSQSDPRQIAVMRSLSYAILIIPILSIMRGYFQGYADMMPSAMSQFVEQFARVVWMLLTAFVIMQVQHGSYVHAVIQSNLAAAVGAAFGIGLLVWFLFSRRKQLDYLVANSNNRLRVSTTELFAEIIEQAIPFIIIDSGITLFSLVDQYTFHPMIAGLVHASSDAIEDWYALFGLNANKLIMIIVSLASAMAVTAIPLLSAAHTRGDYKSISRQIANTMDLFLFVMIPAAFGMAAISRPIYTVFYGPDQLGSNVLYLSAFTAISLGLFTVLMAILQGLSENGLAIKYLVLGLILKGILQYPMIFLFKIYGPLVATNLGLLVIVLLSLKHLEVQYNFNLNRTSRRLVGITAFSIGMFIIVKLVEMGLGKFLSPDRRISALILVIVAVSIGIIFYGFAALKTDLAQKIMGSKIESILVRLRIHD”, the protein production entry is “failed”.
On to “MEEGDFFNCCFSEISSGMTMNKKKMKKSNNQKRFSEEQIKSLELIFESETRLEPRKKVQVARELGLQPRQVAIWFQNKRARWKTKQLEKEYNTLRANYNNLASQFEIMKKEKQSLVSELQRLNEEMQRPKEEKHHECCGDQGLALSSSTESHNGKSEPEGRLDQGSVLCNDGDYNNNIKTEYFGFEEETDHELMNIVEKADDSCLTSSENWGGFNSDSLLDQSSSNYPNWWEFWS”, for which the protein production entry is listed as “failed”.
The same measure for “MEEISGGALTDTLTDIVTWAAKEVGAIALGASLGAIFGTAYAGRWGGVSGGIFGIGSIGQGVGMIAGVILGGVCFGIAAGIVGWDMTLDYAQGVMDAIYDGTLNFWSN”: “failed”; for “MEELKTKGEHGNEEAKKAPATGETETVEKNVAIRRTSTASSEQDLDTFLLGDLEDSDEAPDDGDGSLEDDFDKIGNSDVEDEKQSSKATTNAGNEVSC”: “failed”.
In the case of “MEELQYFPYEKFRPNQREFIEIVKEAVKRGENLIVEAPTGFGKTISVLAGVLPYAISLGYKVVYLARTHKQMDRVIEELRKIGEKSEVSGIEFRSRKDLCLHAYIQTFAQDAYTSMIVCKSLRKLGKCKYYENLKEKRDRVDEIVKFFLSFPPFPREVIEYSELLELCPYEITKKVGEKANVVVASYLYMISPPIRQAFLENLGVDYSDLIVIFDEAHNLPDQAISALSDRLSVRSIERAIKEAEEYGEKDIENFLSILLRGLEILYKEKLENYESEEIPIRPEEVFLHPASILGWRGRDIGMMLEDMIEVGDAIREDRIERNLPPRSYVGRVGEFLWNWLSLRDREDYLHLFTKEKGLALELVALDPSVALDFLEEVHSAIFMSGTLSPLEAFRDIIGVNARLKKFPRIVKRENAIVLVARDVSTRGIERSPPLYKRIAEYIFEAVKNTPKNVGVFTASYEVLEGVLSTNVHIKIEEEVGKKVFIEKKDAPSRENDEMIREFKEESKGKGAVLFGVMGGRNSEGQDYSGDEMNGVILVGIPYARPTPRVQAQTRYFEKKFPGKGRYYGYILPAHRKLAQAAGRVHRSENEKGSIVILDYRVLWKNVKKDLPDWMVETMIPVTLPTLRIKLRRFWRERLNE”, the protein production result is listed as “failed”.
The same measure for “MEELSSVGEQVFAAECILSKRLRKGKLEYLVKWRGWSSKHNSWEPEENILDPRLLLAFQKKEHEKEVQNRKRGKRPRGRPRKLTAMSSCSRRSKLKEPDAPSKSKSSSSSSSSTSSSSSSDEEDDSDLDAKRGPRGRETHPVPQKKAQILVAKPELKDPIRKKRGRKPLPPEQKATRRPVSLAKVLKTARKDLGAPASKLPPPLSAPVAGLAALKAHAKEACGGPSAMATPENLASLMKGMASSPGRGGISWQSSIVHYMNRMTQSQAQAASRLALKAQATNKCGLGLDLKVRTQKGELGMSPPGSKIPKAPSGGAVEQKVGNTGGPPHTHGASRVPAGCPGPQPAPTQELSLQVLDLQSVKNGMPGVGLLARHATATKGVPATNPAPGKGTGSGLIGASGATMPTDTSKSEKLASRAVAPPTPASKRDCVKGSATPSGQESRTAPGEARKAATLPEMSAGEESSSSDSDPDSASPPSTGQNPSVSVQTSQDWKPTRSLIEHVFVTDVTANLITVTVKESPTSVGFFNLRHY”: “failed”.
Take “MEETPKTTLPHKFLKNILMLDVLKVRIYPNKEQEISLAKSFGCSRFVWNFYLNKTNTQYEETGKGMTYCQMAKDLTQLKKLSDYEWLQEPTAAVLQQSLKNLESAFKNFFSKRAGFPKFKSKHSKQSIRFPESCSIKDSGLKLPKLGIVKVSLSKKINSKIKSVTVSKTSTGKYFAALLFEAKDLTNNKQGKISGIDLGLTSLITVFDGETCYKVDPIKPTRKYAKRLRIRQKALSRKVKGSNNRRKAIKVVAKVHEKISNTRQDFLHKLSRKLVDDNQIIVAENLCVKGLARTKLAKSIHDAGFGMLLNFISYKLEREGGKFVQVDRFFPSSKLCSCCGHKNNLLNLSIREWICPSCQTTHDRDENASRNLRTEGIRILETNTAGHAEIQACGETVRLVGTCAKKRVSEKQESPATLLCG”: the protein production entry is “failed”.
Regarding “MEEWPALQWSQGTPASGPALQALEEYAFVPRDDESRQGIRTDALLVIRDGRLLYERYAGATGPQTPHLAWSASKSLLAVLLGVAFGEGRFQLQDPAAKFYPPLEAHPDITLADLLHWASGLDWQEDYEYAPLNSSVVAMLYTRGHRDMAAFTVQQAASGPPGQVFRYSSGDSNLLAASLRGMVGEGQYADYPWRALFEPLGITQAVWERDAAGTFVASSYLYLTARDLARIGLLMQRDGRWRDRQLLPKAWVEFCRTPFRGYRANQDVAVAGGHWWLNREVDGAPRPWPDAPADTYAALGHWGQALYVLPAQRLVIVRYGDDRDGSYQHNELLKRVLAAFATPEQPLEHHHHHH”, the protein production entry is listed as “failed”.
Take “MEFGYIGLMVSVVLIGISVYGFLNSKNIVRIFLSSEILVNASILIVFSVSSLTNQVYLPIYFSLFAIGMALVEIVVAFAAIFLYYKNKGSLEVE”: the protein production result is “failed”.
As for “MEFNLRCSESMPDFSRVGMMDEDIPNVRGRGPSQPRGFLRSQIRAPCALMKGLSDIDQEITMAFIKALAVQHQKRSLERRKIRKKINRILRRVIAISRELHTLNSHPGDWIELGISEFDRIPDCMMPILELAGQGVQLFYKSRRVS”, the protein production result is on record as “failed”.
The same measure for “MEGFSPPINTAQVDAKTKLDEKVDYSNLPCPVLYEELNREATMALKPELFEGFRLDYNKSLNQKFFLSHSILMGPTEVPNPTPSSEIIKIPTANYDFGAGFIDPKLYLIGRITTDGRLNARAKFDLTDNFSVKANALLTDEEDKSQGHLVIDYKGSDYRTQLQLGNNSVYAANYIQHVTPHLSLGGEAFWLGQQLMSGVGYAARYETDKTVASGQIASTGVAVMNYVHKVSEKLSFATDFIYNYLSRDVTASVGYDLITRQSRLRGKVDSNGVVAAYLEEQLPIGLRFLLSAEVDHVKKDYKFGFGVNAF”: “failed”.
